Read-outs that look alike come from different tables or passages of the source.
Key:
[1] = biological target: MHC class II (HLA-DR1) on human LG-2 cells (human); experiment: Scatchard analysis, 125I-labelled toxin on LG-2 cells
[2] = biological target: MHC class II (HLA-DR1) on human LG-2 cells (human); experiment: Scatchard analysis, 125I-labelled toxin on LG-2 cells; low affinity site
[3] = biological target: MHC class II (HLA-DR1) on human LG-2 cells (human); experiment: Scatchard analysis, 125I-labelled toxin on LG-2 cells; high affinity site
[4] = biological target: MHC class II (HLA-DR1) on human LG-2 cells (human)

Row | Binder | Kd [1] [nM] | Kd [2] [nM] | Kd [3] [nM] | Kd [4] [nM]
1 | recombinant SEB (other) ESQPDPKPDELHKSSKFTGLMENMKVLYDDNHVSAINVKSIDQFLYFDLIYSIKDTKLGNYDNVRVEFKNKDLADKYKDKYVDVFGANYYYQCYFSKKTNDINSHQTDKRKTCMYGGVTEHNGNQLDKYRSITVRVFEDGKNLLSFDVQTNKKKVTAQELDYLTRHYLVKNKKLYEFNNSPYETGYIKFIENENSFWYDMMPAPGDKFDQSKYLMMYNDNKMVDSKDVKIEVYLTTKKK | 340 |  |  | 
2 | recombinant TSST (other) STNDNIKDLLDWYSSGSDTFTNSEVLDNSLGSMRIKNTDGSISLIIFPSPYYSPAFTKGEKVDLNTKRTKKSQHTSEGTYIHFQISGVTNTEKLPTPIELPLKVKVHGKDSPLKYGPKFDKKQLAISTLDFEIRHQLTQIHGLYRSSDKTGGYWKITMNDGSTYQSDLSKKFEYNTEKPPINIDEIKTIEAEIN | 130 |  |  | 
3 | recombinant SEA (other) SEKSEEINEKDLRKKSELQGTALGNLKQIYYYNEKAKTENKESHDQFLQHTILFKGFFTDHSWYNDLLVDFDSKDIVDKYKGKKVDLYGAYYGYQCAGGTPNKTACMYGGVTLHDNNRLTEEKKVPINLWLDGKQNTVPLETVKTNKKNVTVQELDLQARRYLQEKYNLYNSDVFDGKVQRGLIVFHTSTEPSVNYDLFGAQGQYSNTLLRIYRDNKTINSENMHIDIYLYTS |  | 1000 | 36 | 
4 | recombinant SPE-G superantigen (mature) (other) DENLKDLKRSLRFAYNITPCDYENVEIAFVTTNSIHINTKQKRSECILYVDSIVSLGITDQFIKGDKVDVFGLPYNFSPPYVDNIYGGIVKHSNQGNKSLQFVGILNQDGKETYLPSEAVRIKKKQFTLQEFDFKIRKFLMEKYNIYDSESRYTSGSLFLATKDSKHYEVDLFNKDDKLLSRDSFFKRYKDNKIFNSEEISHFDIYLKTH |  | 1000 | 16 | 15 to 65

Source: patent US20050153376A1 (AUCKLAND UNISERVICES, published 2005)
